Changes are numbered by the printed parent chain. Names may count otherwise.
B1: CE115HA000 G100bS one-arm antibody (antibody, human IgG1, kappa, L234A L235A, N297A, name in Kabat numbering)
heavy: QVQLVESGGGVVQPGRSLRLSCAASGFTFSNAWMHWVRQAPGKGLEWVAQIKAKSNNYATYYAESVKGRFTISRDDSKNSLYLQMNSLKTEDTAVYYCRYVHYGAYYSVDAWGQGTTVTVSSASTKGPSVFPLAPSSKSTSGGTAALGCLVKDYFPEPVTVSWNSGALTSGVHTFPAVLQSSGLYSLSSVVTVPSSSLGTQTYICNVNHKPSNTKVDKKVEPKSCDKTHTCPPCPAPEAAGGPSVFLFPPKPKDTLMISRTPEVTCVVVDVSHEDPEVKFNWYVDGVEVHNAKTKPREEQYASTYRVVSVLTVLHQDWLNGKEYKCKVSNKALPAPIEKTISKAKGQPREPQVYTLPPSRCELTKNQVSLSCAVKGFYPSDIAVEWESNGQPENNYKTTPPVLDSDGSFFLVSKLTVDKSRWQQGNVFSCSVMHEALHNHYTQKSLSLSPDYKDDDDK
chain: EPKSSDKTHTCPPCPAPELLGGPSVFLFPPKPKDTLMISRTPEVTCVVVDVSHEDPEVKFNWYVDGVEVHNAKTKPREEQYNSTYRVVSVLTVLHQDWLNGKEYKCKVSNKALPAPIEKTISKAKGQPREPQVCTLPPSRDELTKNQVSLWCLVKGFYPSDIAVEWESNGQPENNYKTTPPVLDSDGSFFLYSKLTVDKSRWQQGNVFSCSVMHEALHNRYTQKSLSLSP
light: DIVMTQSPLSLPVTPGEPASISCRSSQSLVHSNRNTYLHWYQQKPGQAPRLLIYKVSNRFSGVPDRFSGSGSGTDFTLKISRVEAEDVGVYYCGQGTQVPYTFGQGTKLEIKRTVAAPSVFIFPPSDEQLKSGTASVVCLLNNFYPREAKVQWKVDNALQSGNSQESVTEQDSKDSTYSLSSTLTLSKADYEKHKVYACEVTHQGLSSPVTKSFNRGEC
notes: one-arm antibody
B2: CE115HA000 V95G one-arm antibody (antibody, human IgG1, kappa, L234A L235A, N297A, name in Kabat numbering)
heavy: B1 heavy with V101G, S108G
chain: B1 chain
light: B1 light
notes: one-arm antibody
B3: CE115HA000 H96Y one-arm antibody (antibody, human IgG1, kappa, L234A L235A, N297A, name in Kabat numbering)
heavy: B1 heavy with H102Y, S108G
chain: B1 chain
light: B1 light
notes: one-arm antibody
B4: CE115HA000 K64Q one-arm antibody (antibody, human IgG1, kappa, L234A L235A, N297A, name in Kabat numbering)
heavy: B1 heavy with K67Q, S108G
chain: B1 chain
light: B1 light
notes: one-arm antibody
B5: CE115HA000 H96L one-arm antibody (antibody, human IgG1, kappa, L234A L235A, N297A, name in Kabat numbering)
heavy: B1 heavy with H102L, S108G
chain: B1 chain
light: B1 light
notes: one-arm antibody
B6: CE115HA000 H96R one-arm antibody (antibody, human IgG1, kappa, L234A L235A, N297A, name in Kabat numbering)
heavy: B1 heavy with H102R, S108G
chain: B1 chain
light: B1 light
notes: one-arm antibody
B7: CE115HA000 S74P one-arm antibody (antibody, human IgG1, kappa, L234A L235A, N297A, name in Kabat numbering)
heavy: B1 heavy with S77P, S108G
chain: B1 chain
light: B1 light
notes: one-arm antibody
B8: CE115HA000 S62K one-arm antibody (antibody, human IgG1, kappa, L234A L235A, N297A, name in Kabat numbering)
heavy: B1 heavy with S65K, S108G
chain: B1 chain
light: B1 light
notes: one-arm antibody
B9: CE115HA000 S74A one-arm antibody (antibody, human IgG1, kappa, L234A L235A, N297A, name in Kabat numbering)
heavy: B1 heavy with S77A, S108G
chain: B1 chain
light: B1 light
notes: one-arm antibody
B10: CE115HA000 V95E one-arm antibody (antibody, human IgG1, kappa, L234A L235A, N297A, name in Kabat numbering)
heavy: B1 heavy with V101E, S108G
chain: B1 chain
light: B1 light
notes: one-arm antibody
B11: CE115HA000 K64E one-arm antibody (antibody, human IgG1, kappa, L234A L235A, N297A, name in Kabat numbering)
heavy: B1 heavy with K67E, S108G
chain: B1 chain
light: B1 light
notes: one-arm antibody
B12: CE115HA000 H96K one-arm antibody (antibody, human IgG1, kappa, L234A L235A, N297A, name in Kabat numbering)
heavy: B1 heavy with H102K, S108G
chain: B1 chain
light: B1 light
notes: one-arm antibody
B13: CE115HA000 S62E one-arm antibody (antibody, human IgG1, kappa, L234A L235A, N297A, name in Kabat numbering)
heavy: B1 heavy with S65E, S108G
chain: B1 chain
light: B1 light
notes: one-arm antibody
B14: CE115HA000 S62D one-arm antibody (antibody, human IgG1, kappa, L234A L235A, N297A, name in Kabat numbering)
heavy: B1 heavy with S65D, S108G
chain: B1 chain
light: B1 light
notes: one-arm antibody
B15: CE115HA000 K64S one-arm antibody (antibody, human IgG1, kappa, L234A L235A, N297A, name in Kabat numbering)
heavy: B1 heavy with K67S, S108G
chain: B1 chain
light: B1 light
notes: one-arm antibody
B16: CE115HA000 V95D one-arm antibody (antibody, human IgG1, kappa, L234A L235A, N297A, name in Kabat numbering)
heavy: B1 heavy with V101D, S108G
chain: B1 chain
light: B1 light
notes: one-arm antibody
B17: CE115HA000 H96S one-arm antibody (antibody, human IgG1, kappa, L234A L235A, N297A, name in Kabat numbering)
heavy: B1 heavy with H102S, S108G
chain: B1 chain
light: B1 light
notes: one-arm antibody
B18: CE115HA000 N76S one-arm antibody (antibody, human IgG1, kappa, L234A L235A, N297A, name in Kabat numbering)
heavy: B1 heavy with N79S, S108G
chain: B1 chain
light: B1 light
notes: one-arm antibody
B19: CE115HA000 S77T one-arm antibody (antibody, human IgG1, kappa, L234A L235A, N297A, name in Kabat numbering)
heavy: B1 heavy with S80T, S108G
chain: B1 chain
light: B1 light
notes: one-arm antibody
B20: CE115HA000 G100bY one-arm antibody (antibody, human IgG1, kappa, L234A L235A, N297A, name in Kabat numbering)
heavy: B1 heavy with S108Y
chain: B1 chain
light: B1 light
notes: one-arm antibody
B21: CE115HA000 N82aD one-arm antibody (antibody, human IgG1, kappa, L234A L235A, N297A, name in Kabat numbering)
heavy: B1 heavy with N86D, S108G
chain: B1 chain
light: B1 light
notes: one-arm antibody
B22: CE115HA000 S62P one-arm antibody (antibody, human IgG1, kappa, L234A L235A, N297A, name in Kabat numbering)
heavy: B1 heavy with S65P, S108G
chain: B1 chain
light: B1 light
notes: one-arm antibody
B23: CE115HA000 V95A one-arm antibody (antibody, human IgG1, kappa, L234A L235A, N297A, name in Kabat numbering)
heavy: B1 heavy with V101A, S108G
chain: B1 chain
light: B1 light
notes: one-arm antibody
B24: CE115HA000 Q105E one-arm antibody (antibody, human IgG1, kappa, L234A L235A, N297A, name in Kabat numbering)
heavy: B1 heavy with S108G, Q114E
chain: B1 chain
light: B1 light
notes: one-arm antibody
B25: CE115HA000 H96G one-arm antibody (antibody, human IgG1, kappa, L234A L235A, N297A, name in Kabat numbering)
heavy: B1 heavy with H102G, S108G
chain: B1 chain
light: B1 light
notes: one-arm antibody
B26: CE115HA000 H96Q one-arm antibody (antibody, human IgG1, kappa, L234A L235A, N297A, name in Kabat numbering)
heavy: B1 heavy with H102Q, S108G
chain: B1 chain
light: B1 light
notes: one-arm antibody
B27: CE115HA000 L78I one-arm antibody (antibody, human IgG1, kappa, L234A L235A, N297A, name in Kabat numbering)
heavy: B1 heavy with L81I, S108G
chain: B1 chain
light: B1 light
notes: one-arm antibody
B28: CE115HA000 K75T one-arm antibody (antibody, human IgG1, kappa, L234A L235A, N297A, name in Kabat numbering)
heavy: B1 heavy with K78T, S108G
chain: B1 chain
light: B1 light
notes: one-arm antibody
B29: CE115HA000 K75R one-arm antibody (antibody, human IgG1, kappa, L234A L235A, N297A, name in Kabat numbering)
heavy: B1 heavy with K78R, S108G
chain: B1 chain
light: B1 light
notes: one-arm antibody
B30: CE115HA000 K64D one-arm antibody (antibody, human IgG1, kappa, L234A L235A, N297A, name in Kabat numbering)
heavy: B1 heavy with K67D, S108G
chain: B1 chain
light: B1 light
notes: one-arm antibody
B31: CE115HA000 V95K one-arm antibody (antibody, human IgG1, kappa, L234A L235A, N297A, name in Kabat numbering)
heavy: B1 heavy with V101K, S108G
chain: B1 chain
light: B1 light
notes: one-arm antibody
B32: CE115HA000 K64A one-arm antibody (antibody, human IgG1, kappa, L234A L235A, N297A, name in Kabat numbering)
heavy: B1 heavy with K67A, S108G
chain: B1 chain
light: B1 light
notes: one-arm antibody

Biological target: T1, CD3 epsilon homodimer protein (UniProt P07766 23-126)
T1 construct: Construct of the homodimer protein is not described; also called CD3 (CD3 epsilon)
Experiment: SPR (Biacore T200), CD3 epsilon homodimer on CM4 chip, one-arm antibody as analyte; ratio to unaltered CE115HA000;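 also: surface plasmon resonance run at 25 °C with HBS-EP+ as running buffer, CD3 epsilon homodimer attached by amine coupling, antibody passed over as analyte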

T1 sequence (P07766 23-126): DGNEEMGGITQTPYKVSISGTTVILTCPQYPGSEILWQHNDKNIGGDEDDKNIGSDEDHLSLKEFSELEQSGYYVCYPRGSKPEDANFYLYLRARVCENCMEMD

Row | KD ratio (KD value of CE115HA000/KD value of the altered form) | Binder
1 | 1.25 | B1
2 | 78300 | B2
3 | 6.67 | B3
4 | 0.87 | B4
5 | 3.14 | B5
6 | 1.59 | B6
7 | 0.7 | B7
8 | 0.99 | B8
9 | 0.77 | B9
10 | 50.5 | B10
11 | 0.84 | B11
12 | 1.56 | B12
13 | 0.82 | B13
14 | 0.87 | B14
15 | 0.85 | B15
16 | 108 | B16

Row | KD ratio (KD value of CE115HA000/KD value of the altered form) | Binder
17 | 1.15 | B17
18 | 0.84 | B18
19 | 0.83 | B19
20 | 51.4 | B20
21 | 0.56 | B21
22 | 0.77 | B22
23 | 3.15 | B23
24 | 0.89 | B24
25 | 0.8 | B25
26 | 1.36 | B26
27 | 1.08 | B27
28 | 0.75 | B28
29 | 0.88 | B29
30 | 0.76 | B30
31 | 1.15 | B31
32 | 0.81 | B32

From patent US20240270846A1 (published 2024)
